Laboratory results published in patent publication US20260174875A1 (Novo Nordisk A/S, priority 2023, published 2026).
Square brackets hold non-standard residues; d marks the D form. Chem. 28 = not defined here; Aib = CC(C)(N)C(=O)O

B1: Compound 24 (peptide)
peptide: Y[Aib]EGTFTSDYSILLEEQAAREFIEWLLAGGPSK(Chem. 28)GALAQTLFVNQASELSTAALGRLSAELHELATLPRTETGSGSP-NH2
modifications: reading uncertain
B2: Compound 39 (peptide)
peptide: Y[Aib]EGTFTSDYSILLEEQAAREFIEWLLAGGPSK(Chem. 28)GGQEPGQEPGEASHLSTAQTQRLSAELHELATLPRTETGSGSP-NH2
modifications: reading uncertain
B3: Compound 25 (peptide)
peptide: H[Aib]HGTFTSDYSILLEEQAAREFIEWLLAGGPSK(Chem. 28)GEASELSTAALGRLSAELHRLATLPRTETGSGSP-NH2
modifications: reading uncertain
B4: Compound 23 (peptide)
peptide: Y[Aib]EGTFTSDYSILLEEQAAREFIEWLLAGGPSK(Chem. 28)GALAQTLGTNEASELSTAALGRLSAELHELATLPRTETGSGSP-NH2
modifications: reading uncertain
B5: Compound 36 (peptide)
peptide: H[Aib]HGTFTSDYSILLEEQAAREFIEWLLAGGPSK(Chem. 28)GEASHLSTAQTARLSAELHELATLPRTETGSGSP-NH2
modifications: reading uncertain
B6: Compound 32 (peptide)
peptide: Y[Aib]EGTFTSDYSILLEEQAAREFIEWLLAGGPSK(Chem. 28)GAEASELSTAALGRLSAELHELATLPRTETGSGSP-NH2
modifications: reading uncertain
B7: Compound 30 (peptide)
peptide: H[Aib]HGTFTSDYSILLEEQAAREFIEWLLAGGPSK(Chem. 28)GAPPPSGGGEASELSTAALGRLSAELHRLATLPRTETGSGSP-NH2
modifications: reading uncertain
B8: Compound 47 (peptide)
peptide: H[Aib]HGTFTSDYSILLEEQAAREFIEWLLAGGPSK(Chem. 28)GAGQAPGQAPGASHLSTAQTQRLSAELHELATLPRTETGSGSP-NH2
modifications: reading uncertain
B9: Compound 45 (peptide)
peptide: H[Aib]HGTFTSDYSILLEEQAAREFIEWLLAGGPSK(Chem. 28)GALAQTLGTNEASHLSTAQTQRLSAELHELATLPRTETGSGSP-NH2
modifications: reading uncertain
B10: Compound 48 (peptide)
peptide: Y[Aib]EGTFTSDYSILLEEQAAREFIEWLLAGGPSSGALAQTLAQTLASHLSTAQTQRLSAELHK(Chem. 28)LATLPRTETGSGSP-NH2
modifications: reading uncertain
B11: Compound 43 (peptide)
peptide: H[Aib]HGTFTSDYSILLEEQAAREFIEWLLAGGPSK(Chem. 28)GEASQLSTAALGRLSAELHRLADLPRTETGSGSP-NH2
modifications: reading uncertain
B12: Compound 37 (peptide)
peptide: H[Aib]HGTFTSDYSILLEEQAAREFIEWLLAGGPSK(Chem. 28)GAPPPSGGGEASHLSTAQTARLSAELHRLADLPRTETGSGSP-NH2
modifications: reading uncertain
B13: Compound 29 (peptide)
peptide: Y[Aib]EGTFTSDYSILLEEQAAREFIEWLLAGGPSK(Chem. 28)GEASELSTAALGRLSAELHYLATLPRTETGSGSP-NH2
modifications: reading uncertain
B14: Compound 38 (peptide)
peptide: Y[Aib]EGTFTSDYSILLEEQAAREFIEWLLAGGPSK(Chem. 28)GGQAPGQAPGEASHLSTAQTQRLSAELHELATLPRTETGSGSP-NH2
modifications: reading uncertain
B15: Compound 28 (peptide)
peptide: Y[Aib]EGTFTSDYSILLEEQAAREFIEWLLAGGPSK(Chem. 28)GEASELSTAALARLSAELHRLATLPRTETGSGSP-NH2
modifications: reading uncertain
B16: Compound 50 (peptide)
peptide: Y[Aib]EGTFTSDYSILLEEQAAREFIEWLLAGGPSSGEASHLSTAQTQRLSAELHK(Chem. 28)LATLPRTETGSGSP-NH2
modifications: reading uncertain
B17: Compound 49 (peptide)
peptide: Y[Aib]EGTFTSDYSILLEEQAAREFIEWLLAGGPSSGAPPPSGGGEASHLSTAQTQRLSAELHK(Chem. 28)LATLPRTETGSGSP-NH2
modifications: reading uncertain
B18: Compound 27 (peptide)
peptide: Y[Aib]EGTFTSDYSILLEEQAAREFIEWLLAGGPSK(Chem. 28)GEASELSTAQLGRLSAELHRLATLPRTETGSGSP-NH2
modifications: reading uncertain
B19: Compound 31 (peptide)
peptide: Y[Aib]EGTFTSDYSILLEEQAAREFIEWLLAGGPSSK(Chem. 28)APPPSGGGEASELSTAALGRLSAELHRLATLPRTETGSGSP-NH2
modifications: reading uncertain

Legend:
Experiment in all cases: cell-based or functional assay
human GLP-1 receptor [1] = target: T1, human GLP-1 receptor (human, UniProt P43220 24-463)
human GIP receptor [2] = target: T2, human GIP receptor (human, UniProt P48546 22-466)
T2 sequence (looked up): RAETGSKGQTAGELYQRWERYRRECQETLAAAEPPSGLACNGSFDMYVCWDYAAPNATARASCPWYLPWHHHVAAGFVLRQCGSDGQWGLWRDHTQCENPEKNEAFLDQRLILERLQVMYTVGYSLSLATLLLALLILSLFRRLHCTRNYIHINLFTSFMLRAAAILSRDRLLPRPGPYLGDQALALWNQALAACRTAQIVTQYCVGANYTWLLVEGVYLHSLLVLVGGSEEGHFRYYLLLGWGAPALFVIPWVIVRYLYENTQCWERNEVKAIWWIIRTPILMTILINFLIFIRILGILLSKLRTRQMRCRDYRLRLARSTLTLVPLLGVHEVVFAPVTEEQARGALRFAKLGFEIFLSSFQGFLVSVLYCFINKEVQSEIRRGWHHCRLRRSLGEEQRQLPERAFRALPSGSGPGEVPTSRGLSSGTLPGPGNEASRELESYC

[3] = target: T3, human amylin-3(a) receptor (human, UniProt P30988 25-474; O60896 24-148)
T3 sequence (looked up) 1: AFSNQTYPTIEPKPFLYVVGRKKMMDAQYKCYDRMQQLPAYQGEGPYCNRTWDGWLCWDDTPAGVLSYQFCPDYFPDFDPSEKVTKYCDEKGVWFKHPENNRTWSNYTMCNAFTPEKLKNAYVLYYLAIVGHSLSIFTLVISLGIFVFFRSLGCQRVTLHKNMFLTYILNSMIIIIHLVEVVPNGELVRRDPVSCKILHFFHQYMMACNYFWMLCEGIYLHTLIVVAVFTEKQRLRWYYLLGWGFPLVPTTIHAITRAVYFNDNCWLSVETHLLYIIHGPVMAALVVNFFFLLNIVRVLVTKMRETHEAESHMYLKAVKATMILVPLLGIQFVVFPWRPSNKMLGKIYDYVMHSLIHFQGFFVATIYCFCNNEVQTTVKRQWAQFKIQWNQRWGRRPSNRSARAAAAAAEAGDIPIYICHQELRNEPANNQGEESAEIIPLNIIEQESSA
T3 sequence (looked up) 2: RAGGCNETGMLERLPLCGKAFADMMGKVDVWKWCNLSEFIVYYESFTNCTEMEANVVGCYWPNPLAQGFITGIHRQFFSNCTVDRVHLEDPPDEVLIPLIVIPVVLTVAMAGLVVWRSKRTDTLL

human GLP-1 receptor [4] = target: T1, human GLP-1 receptor; remark: listed apart in the source
human GIP receptor [5] = target: T2, human GIP receptor; remark: listed apart in the source
[6] = target: T3, human amylin-3(a) receptor; remark: listed apart in the source

Binder	hGLP-1R Potency, no HSA, EC50 [pM] (human GLP-1 receptor [1])	hGIPR Potency, no HSA, EC50 [pM] (human GIP receptor [2])	hAMYR3 Potency, no HSA, EC50 [pM] [3] [pM]	hGLP-1R Potency, 1% HSA, EC50 [pM] (human GLP-1 receptor [4])	hGIPR Potency, 1% HSA, EC50 [pM] (human GIP receptor [5])	hAMYR3 Potency, 1% HSA, EC50 [pM] [6] [pM]
B1	51.5	2.34	4.24	–	–	–
B2	23.7	1.62	5.75	1930	352	140
B3	2.87	4.27	3.22	–	–	–
B4	15.3	1.2	5.17	–	–	–
B5	3.19	1.96	3.84	208	226	137
B6	27.6	8.09	10.1	–	–	–
B7	6.37	6.8	2.28	–	–	–
B8	3.15	2.02	2.57	67.5	162	55.8
B9	4.78	2.63	4.69	112	132	62.4
B10	64.8	7.02	3.2	105	54	78.5
B11	4.31	4.38	3.13	41.5	186	56.5
B12	3.94	2.34	2.98	188	133	75.7
B13	27.1	2.62	3.09	–	–	–
B14	12	1.37	3.63	2350	336	172
B15	96	3.5	2.28	–	–	–
B16	16.2	2.36	3.2	66.3	15.1	185
B17	33.3	4.36	1.85	110	16.7	106
B18	26.2	2.11	3.82	–	–	–
B19	47.8	4.73	2.69	–	–	–
